Tests used:
[1] = target: Fc-tagged SALM3 LRR-Ig-Fn (mouse) (UniProt Q80XU8); assay: SPR
[2] = target: the molecule itself; assay: SEC-MALS
[3] = target: RPTPσ Ig1-3meB_(33-331) (mouse) (UniProt B0V2N1); assay: SEC-MALS

| fold lower affinity than for RPTPσ-meB [1] | stoichiometry N (SALM3 per RPTPσ (2:1)) [3] | Molecule | stoichiometry N [2] |
| --- | --- | --- | --- |
| 10 fold | – | PTPσ Ig1-3_(33-327) (from UniProt B0V2N1 33-327) (domain or fragment) | – |
| – | – | SALM1 LRR-Ig-Fn_(20-518) (domain or fragment, mouse, UniProt Q80TG9 20-518, looked up) ACPKYCVCQNLSESLGTLCPSKGLLFVPPDIDRRTVELRLGGNFIIHIGRQDFANMTGLVDLTLSRNTISHIQPFSFLDLESLRSLHLDSNRLPSLGEDTLRGLVNLQHLIVNNNQLGGIADDAFEDFLLTLEDLDLSYNNLHGLPWDSVRRMVNLHQLSLDHNLLDHIAEGTFADLQKLARLDLTSNRLQKLPPDPIFARSQASLLTATPFAPPLSFSFGGNPLHCNCELLWLRRLERDDDLETCGSPGSLKGRYFWHIREEEFVCEPPLITQHTHKLLVLEGQAATLKCKAIGDPSPLIHWVAPDDRLVGNSSRTAVYDNGTLDILITTSQDSGPFTCIAANAAGEATATVEVSIVQLPHLSNSTSRMAPPKSRLSDITGSSKTSRGGGGSGAGEPPKSTPERAVLVSDVTTTSALVKWSVSKSAPRVKMYQLQYNCSDDEVLIYRMIPASNKAFVVNNLVSGTGYDLCVLAMWDDTATTLTATNIVGCAQFFTKAD | 2 |
| – | 2 | SALM3 LRR-Ig_(17-367) (domain or fragment, mouse, UniProt Q80XU8 17-367, looked up) CPLPCVCQNLSESLSTLCAHRGLLFVPPNVDRRTVELRLADNFIQALGPPDFRNMTGLVDLTLSRNAITRIGARSFGDLESLRSLHLDGNRLVELGSSSLRGPVNLQHLILSGNQLGRIAPGAFDDFLDSLEDLDVSYNNLRQVPWAGIGSMPALHTLNLDHNLIDALPPGVFAQLSQLSRLDLTSNRLATLAPDPLFSRGRDAEASPSPLVLSFSGNPLHCNCELLWLRRLARPDDLETCASPPTLAGRYFWAVPEGEFSCEPPLIARHTQRLWVLEGQRATLRCRALGDPVPTMHWVGPDDRLVGNSSRAWAFPNGTLEIGVTGAGDAGAYTCIATNPAGEATARVELR | 2 |
| – | – | SALM3 LRR-Ig-Fn_(17-510) (domain or fragment, mouse, UniProt Q80XU8 17-510, looked up) CPLPCVCQNLSESLSTLCAHRGLLFVPPNVDRRTVELRLADNFIQALGPPDFRNMTGLVDLTLSRNAITRIGARSFGDLESLRSLHLDGNRLVELGSSSLRGPVNLQHLILSGNQLGRIAPGAFDDFLDSLEDLDVSYNNLRQVPWAGIGSMPALHTLNLDHNLIDALPPGVFAQLSQLSRLDLTSNRLATLAPDPLFSRGRDAEASPSPLVLSFSGNPLHCNCELLWLRRLARPDDLETCASPPTLAGRYFWAVPEGEFSCEPPLIARHTQRLWVLEGQRATLRCRALGDPVPTMHWVGPDDRLVGNSSRAWAFPNGTLEIGVTGAGDAGAYTCIATNPAGEATARVELRVLALPHGGNTSAEGGRPGPSDIAASARTAAEGEGTLESEPAVQVTEVTATSGLVSWGLGRPADPVWMFQIQYNSSEDETLIYRIVPASSHHFLLKHLVPGADYDLCLLALSPAAGPSDLTATRLLGCAHFSTLPATPLCHALQ | 2 |
| – | – | SALM5 LRR-Ig_(18-376) (domain or fragment, mouse, UniProt Q8BXA0 18-376, looked up) QICPKRCVCQILSPNLATLCAKKGLLFVPPNIDRRTVELRLADNFVTNIKRKDFANMTSLVDLTLSRNTISFITPHAFADLRNLRALHLNSNRLTKITNDMFSGLSNLHHLILNNNQLTLISSTAFDDVFALEELDLSYNNLETIPWDAVEKMVSLHTLSLDHNMIDNIPKGTFSHLHKMTRLDVTSNKLQKLPPDPLFQRAQVLATSGIISPSTFALSFGGNPLHCNCELLWLRRLSREDDLETCASPALLTGRYFWSIPEEEFLCEPPLITRHTHEMRVLEGQRATLRCKARGDPEPAIHWISPEGKLISNATRSLVYDNGTLDILITTVKDTGAFTCIASNPAGEATQTVDLHIIK | 2 |
